Measurements published in patent US20070105771A1 (Y S THERAPEUTICS, published 2007).

Tests used:
Assay in all cases: peptide microarray
[1] = molecular target: T1, human CD26-derived 13 mer peptide 113 (human)
T1 peptide: NTDSLSSVTNATS
Description: (§1) The overnight incubation was followed by three washings with each of PBS buffer pH 7.5 and water. The microarrays were then scanned using ArrayWorx-Microarray Scanner.
(§2) The SPOT recognition software package ArrayPro was used for data analysis. The mean of signal intensities from 3 identical subarrays on each microarray image was used for data evaluation.

[2] = molecular target: T2, human CD26-derived 13 mer peptide 47 (human)
T2 peptide: RQLITEERIPNNT
Description: as §1, §2

[3] = molecular target: T3, human CD26-derived 13 mer peptide 63 (human)
T3 peptide: IYVKIEPNLPSYR
Description: as §1, §2

[4] = molecular target: T4, human CD26-derived 13 mer peptide 74 (human)
T4 peptide: IYNGITDWVYEEE
Description: as §1, §2

[5] = molecular target: T5, human CD26-derived 13 mer peptide 101 (human)
T5 peptide: YPKTVRVPYPKAG
Description: as §1, §2

[6] = molecular target: T6, human CD26-derived 13 mer peptide 27 (human)
T6 peptide: HSINDYSISPDGQ
Description: as §1, §2

[7] = molecular target: T7, human CD26-derived 13 mer peptide 119 (human)
T7 peptide: SIQITAPASMLIG
Description: as §1, §2

[8] = molecular target: T8, human CD26-derived 13 mer peptide 85 (human)
T8 peptide: WSPNGTFLAYAQF
Description: as §1, §2

[9] = molecular target: T9, human CD26-derived 13 mer peptide 76 (human)
T9 peptide: ITDWVYEEEVFSA
Description: as §1, §2

[10] = molecular target: T10, human CD26-derived 13 mer peptide 110 (human)
T10 peptide: VKFFVVNTDSLSS
Description: as §1, §2

[11] = molecular target: T11, human CD26-derived 13 mer peptide 45 (human)
T11 peptide: DLNKRQLITEERI
Description: as §1, §2

[12] = molecular target: T12, human CD26-derived 13 mer peptide 53 (human)
T12 peptide: TQWVTWSPVGHKL
Description: as §1, §2

[13] = molecular target: T13, human CD26-derived 13 mer peptide 30 (human)
T13 peptide: SISPDGQFILLEY
Description: as §1, §2

[14] = molecular target: T14, human CD26-derived 13 mer peptide 39 (human)
T14 peptide: WRHSYTASYDIYD
Description: as §1, §2

[15] = molecular target: T15, human CD26-derived 13 mer peptide 116 (human)
T15 peptide: SVTNATSIQITAP
Description: as §1, §2

[16] = molecular target: T16, human CD26-derived 13 mer peptide 105 (human)
T16 peptide: YPKAGAVNPTVKF
Description: as §1, §2

[17] = molecular target: T17, human CD26-derived 13 mer peptide 77 (human)
T17 peptide: DWVYEEEVFSAYS
Description: as §1, §2

[18] = molecular target: T18, human CD26-derived 13 mer peptide 112 (human)
T18 peptide: VVNTDSLSSVTNA
Description: as §1, §2

[19] = molecular target: T19, human CD26-derived 13 mer peptide 123 (human)
T19 peptide: SMLIGDHYLCDVT
Description: as §1, §2

[20] = molecular target: T20, human CD26-derived 13 mer peptide 82 (human)
T20 peptide: AYSALWWSPNGTF
Description: as §1, §2

[21] = molecular target: T21, human CD26-derived 13 mer peptide 64 (human)
T21 peptide: VKIEPNLPSYRIT
Description: as §1, §2

[22] = molecular target: T22, human CD26-derived 13 mer peptide 78 (human)
T22 construct: also called VYEEEVFSAYSAL
T22 peptide: VYEEEVFSAYSAL
Description: as §1, §2

[23] = molecular target: T23, human CD26-derived 13 mer peptide 46 (human)
T23 construct: also called NKRQL1TEERIPN
T23 peptide: NKRQLITEERIPN
Description: as §1, §2

[24] = molecular target: T24, human CD26-derived 13 mer peptide 50 (human)
T24 peptide: ERIPNNTQWVTWS
Description: as §1, §2

[25] = molecular target: T25, human CD26-derived 13 mer peptide 26 (human)
T25 peptide: FGHSINDYSISPD
Description: as §1, §2

[26] = molecular target: T26, human CD26-derived 13 mer peptide 98 (human)
T26 peptide: SDESLQYPKTVRV
Description: as §1, §2

[27] = molecular target: T27, human CD26-derived 13 mer peptide 36 (human)
T27 peptide: YNYVKQWRHSYTA
Description: as §1, §2

[28] = molecular target: T28, human CD26-derived 13 mer peptide 8 (human)
T28 peptide: WISDHEYLYKQEN
Description: as §1, §2

[29] = molecular target: T29, human CD26-derived 13 mer peptide 2 (human)
T29 peptide: KNTYRLKLYSLRW
Description: as §1, §2

[30] = molecular target: T30, human CD26-derived 13 mer peptide 83 (human)
T30 peptide: SALWWSPNGTFLA
Description: as §1, §2

[31] = molecular target: T31, human CD26-derived 13 mer peptide 65 (human)
T31 peptide: IEPNLPSYRITWT
Description: as §1, §2

[32] = molecular target: T32, human CD26-derived 13 mer peptide 56 (human)
T32 peptide: SPVGHKLAYVWNN
Description: as §1, §2

[33] = molecular target: T33, human CD26-derived 13 mer peptide 108 (human)
T33 peptide: VNPTVKFFVVNTD
Description: as §1, §2

[34] = molecular target: T34, human CD26-derived 13 mer peptide 44 (human)
T34 peptide: IYDLNKRQLITEE
Description: as §1, §2

[35] = molecular target: T35, human CD26-derived 13 mer peptide 32 (human)
T35 peptide: DGQFILLEYNYVK
Description: as §1, §2

[36] = molecular target: T36, human CD26-derived 13 mer peptide 49 (human)
T36 construct: also called TEERJPNNTQWVT
T36 peptide: TEERIPNNTQWVT
Description: as §1, §2

[37] = molecular target: T37, human CD26-derived 13 mer peptide 33 (human)
T37 peptide: QFILLEYNYVKQW
Description: as §1, §2

[38] = molecular target: T38, human CD26-derived 13 mer peptide 3 (human)
T38 peptide: TYRLKLYSLRWIS
Description: as §1, §2

[39] = molecular target: T39, human CD26-derived 13 mer peptide 120 (human)
T39 peptide: QITAPASMLIGDH
Description: as §1, §2

[40] = molecular target: T40, human CD26-derived 13 mer peptide 75 (human)
T40 peptide: NGITDWVYEEEVF
Description: as §1, §2

[41] = molecular target: T41, human CD26-derived 13 mer peptide 48 (human)
T41 peptide: LITEERIPNNTQW
Description: as §1, §2

[42] = molecular target: T42, human CD26-derived 13 mer peptide 11 (human)
T42 peptide: YLYKQENNILVFN
Description: as §1, §2

B1: rhuMAb 411 (antibody, human IgG1, kappa, V domains shown)
VH: EVQLVESGAGVKQPGGTLRLTCTASGFSLTTYGVHWVRQAPGKGLEWVGVIWGDGRTDYDAAFMSRVTISKDTSKSTVYLQMNSLRAEDTAVYYCMRNRHDWFDYWGQGTTVTVSS
VL: DILLTQSPSSLSATPGERATITCRASQGIRNNLNWYQQKPGQAPRLLIYYSSNLQSGVPSRFSGSGSGTDFTLTISRLQPEDVAAYYCQQSIKLPFTFGSGTKVEIKR
notes: also called X411
- Mean Signal Value [1]: 0.0288
- Mean Signal Value [2]: 0
- Mean Signal Value [3]: 8.12
- Mean Signal Value [4]: 0
- Mean Signal Value [5]: 0.00481
- Mean Signal Value [6]: 0.00481
- Mean Signal Value [7]: 0.024
- Mean Signal Value [8]: 1.02
- Mean Signal Value [9]: 0.0337
- Mean Signal Value [10]: 0.024
- Mean Signal Value [11]: 0
- Mean Signal Value [12]: 0.00481
- Mean Signal Value [13]: 6.26
- Mean Signal Value [14]: 55.7
- Mean Signal Value [15]: 0.0385
- Mean Signal Value [16]: 0
- Mean Signal Value [17]: 13.7
- Mean Signal Value [18]: 0
- Mean Signal Value [19]: 0.438
- Mean Signal Value [20]: 67.8
- Mean Signal Value [21]: 0.438
- Mean Signal Value [22]: 7.86
- Mean Signal Value [23]: 0
- Mean Signal Value [24]: 34.6
- Mean Signal Value [25]: 0.0337
- Mean Signal Value [26]: 0.00481
- Mean Signal Value [27]: 28.2
- Mean Signal Value [28]: 0.736
- Mean Signal Value [29]: 16.5
- Mean Signal Value [30]: 3.64
- Mean Signal Value [31]: 40.8
- Mean Signal Value [32]: 11.7
- Mean Signal Value [33]: 1.33
- Mean Signal Value [34]: 0
- Mean Signal Value [35]: 0.0192
- Mean Signal Value [36]: 0.962
- Mean Signal Value [37]: 21.8
- Mean Signal Value [38]: 0.726
- Mean Signal Value [39]: 0.0337
- Mean Signal Value [40]: 9.38
- Mean Signal Value [41]: 12.1
- Mean Signal Value [42]: 5.78
